Results taken from paper PMC7401919.
Where two headings read alike, the source gives them in different places.

Assays:
[1] = molecular target: lysyl oxidase (rat (endogenous in RRECs)) (UniProt P16636); assay: co-IP
[2] = molecular target: lysyl oxidase (rat (endogenous in RRECs)) (UniProt P16636); assay: co-IP; remark: listed apart in the source

UniProt P16636, sequence (P16636 22-411): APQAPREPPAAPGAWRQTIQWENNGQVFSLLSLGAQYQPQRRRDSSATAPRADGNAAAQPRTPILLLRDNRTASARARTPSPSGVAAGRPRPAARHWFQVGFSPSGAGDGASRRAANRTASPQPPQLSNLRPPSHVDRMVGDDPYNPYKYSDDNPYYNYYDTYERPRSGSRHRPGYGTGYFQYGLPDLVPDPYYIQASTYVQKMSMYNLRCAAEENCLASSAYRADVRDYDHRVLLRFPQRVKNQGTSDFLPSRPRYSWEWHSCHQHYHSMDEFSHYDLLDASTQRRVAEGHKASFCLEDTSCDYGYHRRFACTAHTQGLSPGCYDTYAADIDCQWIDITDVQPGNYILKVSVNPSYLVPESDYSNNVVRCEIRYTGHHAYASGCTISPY

**Q.** Which results are given for collagen IV (natural protein)?
**A.** LOX bound to Coll IV in HG medium, % of normal-glucose control [1]: 138 % of control; LOX bound to Coll IV in HG medium, % of normal-glucose control [2]: 144 % of control

**Q.** “fibronectin (from UniProt P04937 25-2477) (natural protein)” was tested. Which LOX bound to FN in HG medium, % of normal-glucose control [1] did it give?
**A.** 156 % of control

**Q.** What about the LOX bound to FN in HG medium, % of normal-glucose control [2] of the same substance?
**A.** 168 % of control
